For data set [1], the system named is ubiquitinated proteins / proteasome. The data set can be described thus: Ubiquitinated protein levels (FK2/DNA ratio) in egg chambers with and without MG132. It counts as in vivo, Drosophila. The method, then: FIGS. 12A-12C. Overexpressing ZIP7 decreases ubiquitinated protein levels. (FIG. 12A) Egg chambers with and without ZIP7 overexpression (OE) were incubated with media for 5 hours. (FIG. 12B) Egg chambers with and without ZIP7 overexpression (OE) were treated with 10 μM MG132 proteasome inhibitor for 5 hours. (FIG. 12C) Comparison of FK2/DNA ratio egg for chambers incubated with media or 10 μM MG132 proteasome inhibitor for 5 hours with or without ZIP7 overexpression.
Egg chambers with and without ZIP7 overexpression (OE) were incubated with media in the presence or absence of the MG132 proteasome inhibitor (10 μM) for 5 hours (FIGS. 12A and 12B). Overexpressing ZIP7 decreased ubiquitinated protein levels and the FK2/DNA ratio (FIG. 12C).

Another data set concerns photoreceptor cells. As to the kind of experiment: Rh1G69D-induced photoreceptor cell death (rough eye) in flies. It counts as in vivo. The conditions noted are these: flies expressing Rh1G69D, ZIP7 overexpression. The text has this: FIGS. 6A-6B. ZIP7 prevents Rh1G69D-induced photoreceptor cell death, which causes a rough eye. (FIG. 6A) Percentage of flies having the Rh1^G69D genotype that develop rough eye in presence and absence of ZIP7 expression. (FIG. 6B) Comparison of eye morphology of flies having the Rh1^G69D genotype in presence and absence of ZIP7 expression.
ZIP7 overexpression prevented photoreceptor cell death in the eyes of flies expressing mutant forms of rhodopsin.

For a further data set, the system named is amyloid β42. The data set can be described thus: Neurodegeneration due to expression of amyloid β42 in flies. It counts as in vivo. The conditions noted are these: ZIP7 overexpression. The text has this:
FIG. 10. ZIP7 overexpression suppresses neurodegeneration due to expression of amyloid β42.
(§1) Overexpression of ZIP7 may mitigate ER stress and neuronal cell death in protein aggregation diseases (FIG. 7). We screened aggregate prone proteins for ZIP7 rescue (FIG. 8). ZIP7 overexpression suppressed neurodegeneration due to expression of Vap33 (FIG. 9) and amyloid β42 (FIG. 10).

A further data set deals with Vap33. The data set can be described thus: Neurodegeneration due to expression of Vap33 in flies. It counts as in vivo. The conditions noted are these: ZIP7 overexpression.
From the text: FIG. 9. ZIP7 overexpression suppresses neurodegeneration due to expression of Vap33.
as §1

Data set [2] concerns follicle cells / border cells. The data set can be described thus: ER stress markers (Xbp1::EGFP, PDI) in cells lacking Catsup. It counts as in vivo, Drosophila. The conditions noted are these: mosaic clones expressing CatsupRNAi. The text has this: To test if Catsup knockdown induces the UPR in follicle cells, we compared expression of the ER stress marker Xbp1::EGFP^59 in mosaic border cell clusters composed of heterozygous Catsup^+/− and homozygous Catsup^−/− mutant cells. We found high levels of Xbp1 in Catsup^−/− but not Catsup^+/− border cells (FIG. 4A-A″). […] Accumulation of XBP1 and PDI are indicative of induction of an adaptive UPR^60. This effect was rescued by co-expression of CatsupV5 (FIG. 4C-C″).
(§2) Catsup mutant fly was generated by ethyl methanesulfonate (EMS) mutagen^37. The mutation results in glycine(G) to aspartic acid(D) replacement at amino acid 178. The FLP/FRT system was used to generate the Catsup^G178D homozygous mutant clones by combining FRT40A-Catsup^G178D with hsFLP12,yw;ubi:GFPnls, FRT40A or hsFLP12,yw;ubi:RFPnls, FRT40A/(CyO). Catsup::GFP expression pattern visualized by the line from VDRC 318542 in the fTRG stocks library. The UAS-CatsupRNAi transgenic line is from VDRC 100095 P{KK103630}VIE-260B. Wild type rescue w[*]; sna[Sco]/CyO; P{w[+mCJ=UAS-Catsup. V5}6 Bloomington 63229. […]

For a further data set, the system named is border cells. As to the kind of experiment: Border cell migration in stage 10 egg chambers expressing Catsup RNAi (rescue by co-expressed transgenes). In kind it is in vivo, Drosophila. The conditions noted are these: co-expressed with Catsup RNAi in border cells. The text has this: Border cell clusters are composed of 4-6 migratory cells that surround and carry two non-migratory polar cells. Expression of a Catsup RNAi line in outer, migratory border cells using fruitlessGal4^51 inhibited migration (FIG. 2A). The defect was rescued by co-expression of UAS-CatsupV5 (FIG. 2B). Reduction of Catsup::GFP confirmed the effectiveness of the RNAi (FIGS. 2C, C′ and 2D, D′). Border cell migration was also impaired when Catsup RNAi was driven by c306Gal4 (FIG. 2E), which is expressed in both polar and migratory cells.
ZIP7 resides in the ER membrane and transports Zn^2+ from the ER to the cytosol^64. To test whether the Zn^2+ transporter activity of Catsup was important for border cell migration, we introduced point mutations, H315A and H344A, which replace histidine residues that are required for Zn^2+ transport and are conserved between Catsup, ZIP7 and a more distant family member from Arabidopsis IRT1. […] We generated transgenic flies expressing the mutants under Gal4/UAS control and included a V5 tag so that we could monitor protein abundance and localization. We then co-expressed each of these RNAi-resistant transgenes with CatsupRNAi and evaluated protein expression and border cell migration (FIGS. 5B-5E). […] All the proteins were stably expressed and correctly localized to the ER (FIGS. 5B-5E), therefore the lack of rescue was likely a consequence of impaired transporter activity rather than impaired expression, localization, or another function. […] From these experiments, we conclude that Zn^2+ transport is an essential function of Catsup in promoting ERAD.
Catsup mutant fly was generated by ethyl methanesulfonate (EMS) mutagen^37. The mutation results in glycine(G) to aspartic acid(D) replacement at amino acid 178. The FLP/FRT system was used to generate the Catsup^G178D homozygous mutant clones by combining FRT40A-Catsup^G178D with hsFLP12,yw;ubi:GFPnls, FRT40A or hsFLP12,yw;ubi:RFPnls, FRT40A/(CyO). Catsup::GFP expression pattern visualized by the line from VDRC 318542 in the fTRG stocks library. The UAS-CatsupRNAi transgenic line is from VDRC 100095 P{KK103630}VIE-260B. Wild type rescue w[*]; sna[Sco]/CyO; P{w[+mCJ=UAS-Catsup. V5}6 Bloomington 63229. Additional transgenic Drosophila stocks used: UAS-wRNAi/Cyo is a lab stock, UAS-PleRNAi Bloomington 25796 y[1] v[1]; P{y[+t7.7] v[+t1.8]=TRiP.JF01813}attP2, UAS-Ple is Bloomington 37539 w[*]; P{w[+mC]=UAS-ple.T}331f2, O-fucosyltransferasel Bloomington 9376 P{UAS-O-fut.}]1.1, UAS-Notch.Intracellular.Domain on third chromosome was a gift from Artavanis-Tsakonas lab^71. The ER stress marker UAS-Xbp1-EGFP.HG Bloomington 60731 w[*]; P{w[+mC]=UAS-Xbp1.EGFP.HG}3, UAS-HSC70-3 Bloomington 5843 w[126]; P{w[+mC]=UAS-Hsc70-3. WT}B. Catsup point mutations were cloned into vector pUASt-attb with forward primer ctctgaatagggaattggg[…] (SEQ ID NO:1) and reverse primer ccgcagatctgttaacgtca[…] (SEQ ID NO:2). The vector was injected to attp2 flies y1 w67c23; P{CaryP}attP2 by BestGene Inc.
When generating UAS-Catsup-point-mutations, we designed the construct so it cannot be targeted by the CatsupRNAi sequences by substituting redundant codons for the same amino acids within the region targeted by the RNAi. The RNAi resistant sequence is below with nucleic acid substitutions in lower case:
Point mutations were designed by changing codons at the following site CatsupH183A (CAC to GCC), CatsupH187A (CAT to GCT), CatsupH315A (CAT to GCT), CatsupH344A ([…]). […]

The test system of data set [3] is misfolded rhodopsin protein Rh1^G69D. As to the kind of experiment: Rh1^G69D protein abundance in cells over-expressing Catsup (ERAD). It counts as in vivo, Drosophila. The conditions noted are these: border cells, overexpression. The method, then:
The UPR reinstates ER homeostasis by upregulating the protein-folding capacity of the ER and increasing its protein-degradation capacity^62. During ERAD, misfolded proteins are extruded from the ER, ubiquitinated, and degraded by the proteasome^60. To test whether Catsup overexpression might enhance ERAD, we examined Rh1^G69D protein abundance in cells over-expressing Catsup.
Female flies were fattened with yeast for 2 days at 29° C. Egg chambers were dissected from ovaries of female flies in Schneider's medium with 10% FBS (pH=6.85-6.95) as described previously^72. Freshly dissected egg chambers were fixed in 4% paraformaldehyde and then incubated overnight in 1×PBS with 0.4% triton and the following primary antibodies: mouse anti-PDI (1:200) (ADI-SPA-891-D Enzo Life Sciences, Inc.), chicken anti-GFP (1:200) (ab13970 Abcam plc.), Ple (anti-TH) antibody (a gift from the Craig Montell lab), mouse anti-Notch intracellular domain (1:100) C17.9C6 DSHB, rat Ecadherin antibody DCAD2 (1:50) DSHB, V5 Tag Monoclonal Antibody-Alexa Fluor 555 (2F11F7) Invitrogen, mouse anti-dEGFR (1:2000) E2906 Sigma Aldrich. O-fut1 antibody was used to confirm O-fut1 overexpression, and was a gift from Kenneth D. Irvine lab 73. Secondary antibodies were incubated for 2 hours, together with Hoechst stain for nuclei, and phalloidin stain for F-actin. […]

Data set [4] deals with border cells expressing Rh1^G69D. The data set can be described thus: ER stress (Xbp1::EGFP) and migration of border cells expressing misfolded rhodopsin Rh1^G69D. It counts as in vivo, Drosophila. The conditions noted are these: overexpression.
From the text: To test whether ER stress impairs border cell migration, we expressed a misfolded rhodopsin protein Rh1^G69D, known to induce ER stress^61 As expected, Rh1^G69D induced Xbp1 expression in border cells (FIG. 4D insert). […] Since loss of Catsup caused ER stress, we wondered if Catsup over-expression might suppress ER stress.
as §2, with “63229. Additional transgenic Drosophila stocks used: UAS-wRNAi/Cyo is a lab stock, UAS-PleRNAi Bloomington 25796 y[1] v[1]; P{y[+t7.7] v[+t1.8]=TRiP.JF01813}attP2, UAS-Ple is Bloomington 37539 w[*]; P{w[+mC]=UAS-ple.T}331f2, O-fucosyltransferasel Bloomington 9376 P{UAS-O-fut.}]1.1, UAS-Notch.Intracellular.Domain on third chromosome was a gift from Artavanis-Tsakonas lab^71.” for “63229.”

[5] abbreviates: egg chambers, media with or without 10 μM MG132, 5 hours.

Results on 2 molecules are retold here after patent US20250000945A1, “Suppression of Neurodegeneration with Zinc Transporter Protein 7” (The Regents of the University of California, priority 2021, published 2025).

Sequence of misfolded rhodopsin protein Rh1^G69D (P06002 whole entry G69D): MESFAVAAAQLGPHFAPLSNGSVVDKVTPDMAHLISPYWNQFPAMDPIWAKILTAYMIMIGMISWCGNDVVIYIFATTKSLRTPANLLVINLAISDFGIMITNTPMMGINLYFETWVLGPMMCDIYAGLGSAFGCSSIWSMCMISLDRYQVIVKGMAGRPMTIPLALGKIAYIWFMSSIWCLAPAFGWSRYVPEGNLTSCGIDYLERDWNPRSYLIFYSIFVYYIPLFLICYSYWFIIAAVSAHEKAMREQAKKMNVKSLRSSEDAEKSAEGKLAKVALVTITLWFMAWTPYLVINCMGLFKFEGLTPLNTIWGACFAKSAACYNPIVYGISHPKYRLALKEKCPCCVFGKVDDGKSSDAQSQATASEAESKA

B1: ZIP7: zinc transporter protein 7, overexpressed from a transgene; SEQ ID NO:4 (Drosophila), SEQ ID NO:5 (human) (protein, UniProt Q92504 1-469, looked up)
Zinc transporter SLC39A7: MARGLGAPHWVAVGLLTWATLGLLVAGLGGHDDLHDDLQEDFHGHSHRHSHEDFHHGHSHAHGHGHTHESIWHGHTHDHDHGHSHEDLHHGHSHGYSHESLYHRGHGHDHEHSHGGYGESGAPGIKQDLDAVTLWAYALGATVLISAAPFFVLFLIPVESNSPRHRSLLQILLSFASGGLLGDAFLHLIPHALEPHSHHTLEQPGHGHSHSGQGPILSVGLWVLSGIVAFLVVEKFVRHVKGGHGHSHGHGHAHSHTRGSHGHGRQERSTKEKQSSEEEEKETRGVQKRRGGSTVPKDGPVRPQNAEEEKRGLDLRVSGYLNLAADLAHNFTDGLAIGASFRGGRGLGILTTMTVLLHEVPHEVGDFAILVQSGCSKKQAMRLQLLTAVGALAGTACALLTEGGAVGSEIAGGAGPGWVLPFTAGGFIYVATVSVLPELLREASPLQSLLEVLGLLGGVIMMVLIAHLE
For the molecule B1, in data set [1] (setting [5]), the FK2/DNA ratio entry was “decreased” and the ubiquitinated protein levels result is “decreased”. In data set [1] (even in the presence of a proteasome inhibitor), the “activity of the proteasome” value is listed as “enhances”. The “photoreceptor cell death (rough eye)” value in the data set with photoreceptor cells is given as “prevented”. In the data set on amyloid β42, the “neurodegeneration due to expression of amyloid β42” value is listed as “suppressed”. In addition, in the data set with Vap33, the “neurodegeneration due to expression of Vap33” value was “suppressed”.

B2: CatsupV5: V5-tagged wild type Catsup, the Drosophila homolog of ZIP7, expressed under Gal4/UAS control (protein, UniProt Q9V3A4 1-449, looked up)
Protein catecholamines up: MAKQVADYQCSKLQLYQKLALVVILGAVLFSLPALCAGQGNPSFKYSREANENFDPQKAPRAEHHHHHDHDHDHGHHHHGHDHDHDHDHGHDHGHHHHGHDHDHDHDHGHHHHGHDERHTKAKPDLDMSTIWLHSIGSTLLISAAPFVLLYIIPLDNSEAMKPRLKVLLAFASGGLLGDAFLHLIPHATHPHSHGEHGHDHGHDHHHHHDGEEHEHGHSHDMSIGLWVLGGIIAFLSVEKLVRILKGGHGGHGHSHGAPKPKPVPAKKKSSDKEDSGDGDKPAKPAKIKSKKPEAEPEGEVEISGYLNLAADFAHNFTDGLAIGASYLAGNSIGIVTTITILLHEVPHEIGDFAILIKSGCSRRKAMLLQLVTALGALAGTALALLGAGGGDGSAPWVLPFTAGGFIYIATVSVLPELLEESTKLKQSLKEIFALLTGVALMIVIAKFE
modifications: V5 tag
notes: V5-tagged wild type Catsup, the Drosophila homolog of ZIP7, expressed under Gal4/UAS control
Turning to B2, the “rescue of ER stress (Xbp1 and PDI accumulation)” value in data set [2] is given as “rescued”. The “rescue of border cell migration defect” value in the data set with border cells was “rescued”. Besides, the “Rh1^G69D protein abundance” value in data set [3] is listed as “reduced Rh1^G69D protein to an undetectable level”. For the same molecule, in data set [4], the “Rh1^G69D-induced Xbp1 expression” value is “rescued” and the “border cell migration blocked by Rh1^G69D” value was “rescued”.
